± gives the uncertainty stated by the source.
Test: protein stability index of a GFP-peptide fusion (yeast GPS) (PSI 1-4); higher = more stable; sorted into four equal gates, so the index is relative within each strain
Method in brief: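 Each library plasmid carries Cherry plus GFP with a tiled 17-residue yeast protein peptide fused downstream, and the pooled library was carried in yeast. Mid-log cultures in leucine-free medium were sorted into four equal gates by GFP/Cherry ratio. Reads from Illumina sequencing of PCR-amplified plasmids from each gate were assigned to strains by barcodes. Per peptide, the protein stability index was computed as the summed products of gate read frequency and gate number.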

Sequence	protein stability index (doa10∆)	protein stability index (pdr5∆)	protein stability index (san1∆)	protein stability index (ubr1∆)
ENDVKPISIEAPQFYRY [SWI3]	2.55 ± 0.038	2.14 ± 0.039	2.2 ± 0.055	1.95 ± 0.035
GGSTTNNTTTTSTKPSF [YOR098C/NUP1]	2.79 ± 0.075	3.01 ± 0.074	2.8 ± 0.072	2.75 ± 0.067
EKSKALESEIASSSAKL [SMC2]	2.64 ± 0.071	2.96 ± 0.078	3.03 ± 0.043	2.97 ± 0.075
LMDKCLPKVRIRTRRAA [DIS3]	1.86 ± 0.06	1.34 ± 0.048	1.42 ± 0.085	1.5 ± 0.039
RKSVFAPLNFNPIIENN [SSN2]	2.65 ± 0.058	2.98 ± 0.073	2.75 ± 0.06	2.71 ± 0.069
WCCRSGSAADTQAIADI [PRE3]	2.89 ± 0.12	3.03 ± 0.099	2.85 ± 0.11	2.93 ± 0.077
DPSISNNIRQAICRYAN [RRP4]	2.09 ± 0.077	2.06 ± 0.049	1.59 ± 0.11	2.43 ± 0.056
LQLELTIEDIAVAITRA [RPO31]	1.92 ± 0.057	2.12 ± 0.044	1.97 ± 0.058	2.07 ± 0.041
GISINNMMEHWDYLQLT [RPO31]	2.84 ± 0.087	2.81 ± 0.073	2.8 ± 0.14	2.65 ± 0.065
SQISKAEMEADSLASEL [SMC4]	2.75 ± 0.08	3.31 ± 0.16	3.27 ± 0.071	2.82 ± 0.16
ERAARVVKGRVEKTLLS [RPO31]	3.37 ± 0.19	3.27 ± 0.18	–	3.5 ± 0.1
VVVDTVECAQHCIDYLR [SMC4]	3.06 ± 0.11	2.79 ± 0.22	3.26 ± 0.074	3.01 ± 0.1
LVQEQVREFQRRLAFLG [BRR2]	2.07 ± 0.12	1.16 ± 0.14	1.04 ± 0.22	1.17 ± 0.087
YVERFETQLKVVTRSKE [SMC1]	1.12 ± 0.066	2.29 ± 0.091	1.26 ± 0.2	2.11 ± 0.051
TPKYRLVVRFTNKDIIC [RPL5]	1.75 ± 0.078	1.64 ± 0.11	1.17 ± 0.2	1.36 ± 0.071
LSRLQKSGRINGFHGRL [SMC4]	3.26 ± 0.15	3.57 ± 0.15	3.29 ± 0.081	3.19 ± 0.064
EEYLDANVFRLENQKDL [MTW1]	3.4 ± 0.081	3.38 ± 0.087	3.28 ± 0.057	3.3 ± 0.044
QRSKKIQPTAKVVYIQR [DIS3]	2.23 ± 0.27	2.56 ± 0.22	2.92 ± 0.17	–
PLKTQTKNGTPNPNNMK [GAL11]	2.98 ± 0.085	2.94 ± 0.084	2.73 ± 0.046	2.95 ± 0.043
EGDQAEVIFSFEGTPPF [YMR129W/POM152]	3.29 ± 0.17	3.39 ± 0.17	2.52 ± 0.21	3.36 ± 0.1
TTGGDYILSLVSIKDST [YMR129W/POM152]	1.99 ± 0.042	2.04 ± 0.034	1.89 ± 0.052	1.68 ± 0.028
CCYFIEWKSNHKKKRSN [SRB8]	1.81 ± 0.048	2.08 ± 0.054	2.1 ± 0.073	1.92 ± 0.048
FSNKYLELCKLASNNLE [RRI2]	1.95 ± 0.054	2.1 ± 0.039	2.02 ± 0.068	2.02 ± 0.043
PNYLHLVSSYLNKSDLL [YML103C/NUP188]	1.96 ± 0.038	2.27 ± 0.034	2.21 ± 0.04	1.8 ± 0.031
VSEKAFLLTQSKVSIEQ [RPN7]	3.21 ± 0.18	–	–	2.8 ± 0.14
DQDELVQPPLDKFPYKK [SWP82]	3.11 ± 0.088	3.26 ± 0.093	3.13 ± 0.059	3.08 ± 0.066

Sequence	protein stability index (doa10∆)	protein stability index (pdr5∆)	protein stability index (san1∆)	protein stability index (ubr1∆)
EAGEVKDDGAFVKFLSK [RPL10]	3.28 ± 0.087	3.22 ± 0.078	3.35 ± 0.07	3.61 ± 0.065
FKSALANLEDIIFEIEK [RRP6]	3.21 ± 0.13	3.13 ± 0.096	3.2 ± 0.071	2.83 ± 0.12
DHSMILPSGVLSRGDDE [SMC3]	3.08 ± 0.094	2.51 ± 0.082	2.19 ± 0.12	2.39 ± 0.04
DDPVPTPPAIEHKPVSP [SSN2]	2.63 ± 0.14	2.59 ± 0.26	2.72 ± 0.29	2.49 ± 0.16
HQPITSEQKMKEDADLK [SIR4]	2.88 ± 0.058	3.36 ± 0.1	3.42 ± 0.063	3.26 ± 0.073
TPNVNVLVLHGDKDTRA [ISW2]	2.63 ± 0.05	2.36 ± 0.05	2.32 ± 0.08	2.81 ± 0.05
NNPPKPQKPVPLNVLQD [SNF2]	3.04 ± 0.049	3.38 ± 0.06	3.21 ± 0.045	3.052 ± 0.028
EIIGGGSKSASKQTPQP [ISW2]	2.95 ± 0.081	3.08 ± 0.092	2.97 ± 0.068	2.96 ± 0.06
REDLNKAEYVDQYDAER [RPO31]	3.15 ± 0.1	3.11 ± 0.11	3.33 ± 0.092	3.34 ± 0.083
NPIANHTVTNSPNPTLQ [SNF5]	2.64 ± 0.038	2.83 ± 0.046	2.65 ± 0.038	2.65 ± 0.03
LQDLSRYSRQFINNVLS [GRR1]	2.78 ± 0.059	2.29 ± 0.049	2.56 ± 0.049	2.74 ± 0.051
LRLCLDIVPYFLKHNGE [RPN1]	2.3 ± 0.063	2.01 ± 0.037	1.71 ± 0.082	2.52 ± 0.074
LLKPFHVKVNDKKEMTI [SIR3]	3.05 ± 0.18	2.58 ± 0.15	2.21 ± 0.14	2.68 ± 0.14
DEIATIQSKRLRNKIAG [RPS17A]	3.15 ± 0.11	3.13 ± 0.099	3.33 ± 0.066	3.48 ± 0.14
RSLCEVLVYDDKLEKVT [RPC34]	2.32 ± 0.09	2.62 ± 0.1	2.33 ± 0.1	2.84 ± 0.093
IQLPASLAATYSMISLQ [ARP9]	1.73 ± 0.088	2.01 ± 0.074	2.29 ± 0.1	2.19 ± 0.053
AKMNAKTDFAKIINKPN [RPC82]	1.8 ± 0.069	1.79 ± 0.092	1.58 ± 0.17	1.62 ± 0.069
TDDQGRVIDDNNRRRSR [SIR3]	3.66 ± 0.12	3.05 ± 0.24	3.39 ± 0.17	–
YLKHVSRRFKNGFQTGS [RPL37A]	2.06 ± 0.085	3.23 ± 0.062	3.16 ± 0.084	3.46 ± 0.056
LDQTKDTRITHLLRQTN [SNF2]	1.34 ± 0.036	1.41 ± 0.034	1.54 ± 0.061	1.32 ± 0.029
SIKNNVAMCFVINKLDR [SNU114]	1.9 ± 0.14	1.91 ± 0.12	–	–
LILILVISFGQPKLNPM [SWI1]	1.68 ± 0.054	1.61 ± 0.042	1.78 ± 0.092	2.09 ± 0.04
DRVFNVPTIGVVNSNFA [YJR042W/NUP85]	2.57 ± 0.08	2.7 ± 0.085	2.48 ± 0.086	2.5 ± 0.036
ILRKPGKDCKLQNLQRI [RRI2]	3.12 ± 0.094	3.47 ± 0.14	3.14 ± 0.096	3.07 ± 0.13
DSLNEWIKFDQELYNEL [RPN7]	3.18 ± 0.11	3.17 ± 0.19	3.17 ± 0.074	3.19 ± 0.073
PMDEETKLYFDVNEKIR [RPC25]	3.01 ± 0.098	3.03 ± 0.086	3.01 ± 0.068	3.1 ± 0.1

Sequence	protein stability index (doa10∆)	protein stability index (pdr5∆)	protein stability index (san1∆)	protein stability index (ubr1∆)
AIFNNEFDSDDDDISDD [RPN4]	3.12 ± 0.1	2.16 ± 0.19	–	3.19 ± 0.21
ERQIFLEACIVRIMKAK [CDC53]	1.64 ± 0.051	1.69 ± 0.048	1.48 ± 0.076	1.61 ± 0.037
GWPKLQLGPQTPAFNTA [ECM29]	1.43 ± 0.21	1.48 ± 0.16	1.42 ± 0.17	1.68 ± 0.2
RVNKNAPAVELHGNAKK [FAS2]	2.74 ± 0.071	3.14 ± 0.07	3.2 ± 0.18	2.93 ± 0.058
SKSGRIFALVFSSNERY [RPN13]	2.45 ± 0.1	2.74 ± 0.086	2.28 ± 0.11	2.62 ± 0.049
DRSLADDYDYVMYGTAY [RPB8]	2.56 ± 0.059	2.98 ± 0.064	3.02 ± 0.063	2.73 ± 0.074
TRSIKEKWLLNQIPVTE [SRB6]	1.13 ± 0.1	1.34 ± 0.18	1.29 ± 0.19	1.18 ± 0.17
YLKNVLFAFNGVARNFH [SIN4]	2.55 ± 0.082	2 ± 0.056	1.79 ± 0.064	2.15 ± 0.063
KLIPKLYRYRFDPFQAV [ECM29]	2.86 ± 0.14	2.77 ± 0.14	2.71 ± 0.11	2.8 ± 0.063
KLRKIAISKKNKSLKYV [LIN1]	1.65 ± 0.062	1.33 ± 0.059	1.23 ± 0.14	1.15 ± 0.048
YKKLDIDGKVIQAGKFD [SNF2]	2.94 ± 0.088	3.36 ± 0.08	3.06 ± 0.044	2.99 ± 0.059
SCTKCPQIVVPDAQNEL [DIS3]	2.17 ± 0.05	2.42 ± 0.04	2.48 ± 0.057	2.34 ± 0.059
DDKLAYIRVNHADKDTF [POP8]	2.9 ± 0.059	2.58 ± 0.059	2.72 ± 0.063	2.62 ± 0.049
QNNSKHTEDTVNESRNS [SRB5]	–	2.73 ± 0.1	2.95 ± 0.09	2.98 ± 0.11
GESARRFQKCFPPGVIG [RPC40]	2.24 ± 0.1	2.34 ± 0.18	–	2.83 ± 0.12
ITLFVLVSVVEAFIASG [FAS2]	1.53 ± 0.048	1.41 ± 0.043	2.06 ± 0.061	1.8 ± 0.051
DKFKLNENDLKTYNCLH [SMC1]	2.7 ± 0.14	2.5 ± 0.12	–	2.85 ± 0.094
EREQCRAGGAAASLIMP [PRE7]	3.02 ± 0.24	2.92 ± 0.19	3.43 ± 0.18	2.89 ± 0.1
MSPNHGTFGGDGMYSES [FAS2]	1.87 ± 0.075	2.34 ± 0.064	2.8 ± 0.14	2.43 ± 0.064
TNLKNHPAYLFKGLETP [YLR018C/POM34]	2.38 ± 0.055	2.51 ± 0.039	1.59 ± 0.061	2.36 ± 0.028
DVSIEELLREWLETYSE [IRR1]	3.38 ± 0.056	3.34 ± 0.075	3.56 ± 0.067	3.33 ± 0.047
PLIIVSDGQSRVKDIHL [RET1]	2.88 ± 0.3	3.58 ± 0.24	3.05 ± 0.2	2.79 ± 0.15
FEPSISRSNFQGKHTKF [LRP1]	3.2 ± 0.1	3.26 ± 0.15	2.97 ± 0.14	3.28 ± 0.094
VKAQRPITGASLDLIKE [RPL24A]	2.42 ± 0.062	2.07 ± 0.049	2.69 ± 0.074	2.73 ± 0.05
PLIKKIKYEPRFEKAVK [SMC3]	2.75 ± 0.072	2.72 ± 0.098	2.53 ± 0.13	2.48 ± 0.079
TGAGVDVNTNANANANA [SNF11]	3.12 ± 0.074	3.31 ± 0.07	3.19 ± 0.045	3.34 ± 0.051
